As usually defined, the EC50 is the concentration giving half of the maximal effect. A lower EC50 goes with higher potency in that assay.

For assay [1], the target named is T1, human DR4 (Death Receptor 4), cell surface expressed on human tumor cell lines (human, UniProt O00220 24-468).
T1 construct: also called TNFRSF10A; TRAIL-R1
T1 sequence: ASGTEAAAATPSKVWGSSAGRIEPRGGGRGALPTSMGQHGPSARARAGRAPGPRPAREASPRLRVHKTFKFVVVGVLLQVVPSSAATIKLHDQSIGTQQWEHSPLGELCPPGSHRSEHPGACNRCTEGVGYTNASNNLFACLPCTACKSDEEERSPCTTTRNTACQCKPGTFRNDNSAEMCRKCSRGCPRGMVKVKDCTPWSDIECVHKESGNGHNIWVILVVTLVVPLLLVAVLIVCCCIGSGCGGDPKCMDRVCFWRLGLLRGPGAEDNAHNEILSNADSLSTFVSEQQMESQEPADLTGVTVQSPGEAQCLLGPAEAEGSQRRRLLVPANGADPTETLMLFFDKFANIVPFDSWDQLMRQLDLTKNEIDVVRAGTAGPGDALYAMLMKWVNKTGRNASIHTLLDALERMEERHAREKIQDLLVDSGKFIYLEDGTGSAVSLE
Briefly: flow cytometry, DLD-1 cells, n = 3.

Assay [2] concerns the target T1, human DR4 (Death Receptor 4), cell …. Briefly: flow cytometry, HCT-15 cells, n = 3. For orientation: Flow cytometry measures light scatter and fluorescence of single cells or particles in a stream.
The target of assay [3] is T2, human FAPα (Fibroblast activation protein alpha), cell surface expressed (human, UniProt Q12884 1-760).
T2 construct: Endogenous on human lung fibroblasts and CAFs
T2 sequence: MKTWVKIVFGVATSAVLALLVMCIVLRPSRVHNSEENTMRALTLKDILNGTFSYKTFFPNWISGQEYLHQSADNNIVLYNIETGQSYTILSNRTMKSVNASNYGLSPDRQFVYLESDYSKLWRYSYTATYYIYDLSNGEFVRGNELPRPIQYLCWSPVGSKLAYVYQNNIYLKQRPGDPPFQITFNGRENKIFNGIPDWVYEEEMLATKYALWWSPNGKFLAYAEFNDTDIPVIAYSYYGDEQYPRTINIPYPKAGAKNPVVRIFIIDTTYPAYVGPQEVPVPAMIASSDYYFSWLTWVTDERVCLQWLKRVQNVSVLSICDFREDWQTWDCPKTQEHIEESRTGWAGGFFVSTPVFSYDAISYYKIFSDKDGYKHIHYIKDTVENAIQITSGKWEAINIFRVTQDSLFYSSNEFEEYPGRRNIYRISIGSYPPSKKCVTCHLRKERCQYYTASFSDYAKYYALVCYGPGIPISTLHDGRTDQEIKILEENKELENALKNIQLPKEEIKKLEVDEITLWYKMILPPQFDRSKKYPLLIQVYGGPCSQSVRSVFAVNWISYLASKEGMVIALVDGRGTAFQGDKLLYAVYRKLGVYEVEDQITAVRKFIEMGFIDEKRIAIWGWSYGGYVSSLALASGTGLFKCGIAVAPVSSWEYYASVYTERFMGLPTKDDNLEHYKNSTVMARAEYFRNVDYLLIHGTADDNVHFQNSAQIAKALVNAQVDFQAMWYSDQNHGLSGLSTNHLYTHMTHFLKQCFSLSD
Briefly: flow cytometry, human lung fibroblasts, n = 3. Here is the method:
Binding of bispecific or monoclonal antibodies carrying the anti-FAPα arm derived from IgG1-FAPα-FERL (BisG1-FAPα-FERL/DR4-FERR, BisG1-FAPα-FERL/b12-FERR, and IgG1-FAPα-FERL) to cell surface expressed human FAPα was analyzed by flow cytometry using human lung fibroblasts and CAFs, which endogenously express FAPα. BisG1-b12-FERL/b12-FERR was used as negative control.
Human lung fibroblasts and CAFs (50,000 cells/well) were seeded in 96-Well round bottom plates (Greiner Bio-one, Cat #650101). Antibody dilutions were prepared using fluorescence-activated cell sorting (FACS) buffer, consisting of phosphate buffer saline (PBS, Lonza, Cat #BE17-517Q)+1% Bovine Serum Albumin (BSA, Roche, Cat #10735086001)+0.02% Sodium Azide (Bio-World, Cat #41920044-3). Plates were centrifuged, supernatant was removed, cells were resuspended in 50 μL of human Fc Block (BD, Cat #564220, diluted 1:100 in FACS buffer) and 50 μL of viability stain TO-PRO-3 Iodide (Thermo Fisher, Cat #T3605, diluted 1: 25,000 in FACS buffer), and incubated for 15 min at 4° C. Plates were washed three times with FACS buffer. Plates were centrifuged, supernatant was removed, cells were resuspended in 50 μL of antibody dilutions (concentration range 90-0.0005 μg/mL, three-fold dilution steps using FACS buffer) of BisG1-FAPα-FERL/DR4-FERR, BisG1-FAPα-FERL/b12-FERR, BisG1-b12-FERL/b12-FERR (top six concentrations only for CAFs culture) or IgG1-FAPα-FERL (top four concentrations only for CAFs culture) and incubated for 30 min at 4° C. Cells were washed three times with FACS buffer and resuspended in 50 μL of Fluorescein isothiocyanate (FITC)-labeled polyclonal antibody goat anti-mouse IgG1 (Jackson Immuno Research, Cat #109-096-097, diluted 1:100 in FACS buffer). […] Antibody binding to viable cells (TO-PRO-3 negative) was analyzed by flow cytometry on a FACSCelesta™ (BD biosciences) and data were processed using FlowJo_v10.8.1 (FlowJo LLC). Geomean fluorescence intensity, gMFI, was determined and visualized using GraphPad Prism.

Changes are numbered by the printed parent chain.

B1: IgG1-DR4-FERR (antibody, V domains shown)
VH: QVQLQESGPGLVKPSGTLSLTCAVSGGSISSYSWWSWIRQPPGKGLEWIGELYHSGSTNYNPSLKSRVTISVDKSKNQFSLKLRSVTAADTAVYYCVRGVATIDYWGQGTLVTVSS
VL: QSALTQPPSASGSPGQSVTISCTGTSSDVGGYNFVSWYQQDPGKAPKLLIYEVTKRPSGVPDRFSGSKSGNTASLTVSGLQAEDEADYYCSSYAGSNNVMFGGGTKLTVLG
notes: Bivalent monoclonal IgG1 lambda
In the case of B1, the half-maximal effective concentration (EC50) worked out at 0.23 µg/mL in assay [1] and 0.15 µg/mL in assay [2].

B2: BisG1-FAPα-FERL/DR4-FERR (bispecific antibody, human IgG1, kappa, lambda)
heavy 1: EVQLLESGGGLVQPGGSPRLSCEASGFTFSSYALSWVRQAPGKGLEWVSAISGSGGGRYYADSVKGRFTISRDNSKNTLFLQMNSLRAEDTAVYYCAKEGYSSSGTYWDHWGQGTLVTVSSASTKGPSVFPLAPSSKSTSGGTAALGCLVKDYFPEPVTVSWNSGALTSGVHTFPAVLQSSGLYSLSSVVTVPSSSLGTQTYICNVNHKPSNTKVDKRVEPKSCDKTHTCPPCPAPEFERGPSVFLFPPKPKDTLMISRTPEVTCVVVDVSHEDPEVKFNWYVDGVEVHNAKTKPREEQYNSTYRVVSVLTVLHQDWLNGKEYKCKVSNKALPAPIEKTISKAKGQPREPQVYTLPPSREEMTKNQVSLTCLVKGFYPSDIAVEWESNGQPENNYKTTPPVLDSDGSFLLYSKLTVDKSRWQQGNVFSCSVMHEALHNHYTQKSLSLSPG
light 1: AIQMTQSPSSVSASVGDRVTITCRASQGVSSWLAWYQQKPGRAPKLLIYVASTLQSGVPSRFSGSGSGTDFTLTINSLQPEDFATYYCQQANSFPPTFGQGTRLEMKRTVAAPSVFIFPPSDEQLKSGTASVVCLLNNFYPREAKVQWKVDNALQSGNSQESVTEQDSKDSTYSLSSTLTLSKADYEKHKVYACEVTHQGLSSPVTKSFNRGEC
heavy 2: QVQLQESGPGLVKPSGTLSLTCAVSGGSISSYSWWSWIRQPPGKGLEWIGELYHSGSTNYNPSLKSRVTISVDKSKNQFSLKLRSVTAADTAVYYCVRGVATIDYWGQGTLVTVSSASTKGPSVFPLAPSSKSTSGGTAALGCLVKDYFPEPVTVSWNSGALTSGVHTFPAVLQSSGLYSLSSVVTVPSSSLGTQTYICNVNHKPSNTKVDKRVEPKSCDKTHTCPPCPAPEFERGPSVFLFPPKPKDTLMISRTPEVTCVVVDVSHEDPEVKFNWYVDGVEVHNAKTKPREEQYNSTYRVVSVLTVLHQDWLNGKEYKCKVSNKALPAPIEKTISKAKGQPREPQVYTLPPSREEMTKNQVSLTCLVKGFYPSDIAVEWESNGQPENNYKTTPPVLDSDGSFFLYSRLTVDKSRWQQGNVFSCSVMHEALHNHYTQKSLSLSPG
light 2: QSALTQPPSASGSPGQSVTISCTGTSSDVGGYNFVSWYQQDPGKAPKLLIYEVTKRPSGVPDRFSGSKSGNTASLTVSGLQAEDEADYYCSSYAGSNNVMFGGGTKLTVLGQPKAAPSVTLFPPSSEELQANKATLVCLISDFYPGAVTVAWKADSSPVKAGVETTTPSKQSNNKYAASSYLSLTPEQWKSHRSYSCQVTHEGSTVEKTVAPTECS
notes: Human IgG1 bispecific made by controlled Fab-arm exchange of IgG1-FAPα-FERL and IgG1-DR4-FERR; monovalent for FAPα and for DR4; also called GEN1057
For the molecule B2, the EC50 in assay [1] was 0.67 µg/mL; in assay [2], 0.68 µg/mL; in assay [3], 0.059 µg/mL.

B3: BisG1-FAPα-FERL/b12-FERR (bispecific antibody, human IgG1, kappa)
heavy 1: B2 heavy 1
light 1: B2 light 1
heavy 2: QVQLVQSGAEVKKPGASVKVSCQASGYRFSNFVIHWVRQAPGQRFEWMGWINPYNGNKEFSAKFQDRVTFTADTSANTAYMELRSLRSADTAVYYCARVGPYSWDDSPQDNYYMDVWGKGTTVIVSSASTKGPSVFPLAPSSKSTSGGTAALGCLVKDYFPEPVTVSWNSGALTSGVHTFPAVLQSSGLYSLSSVVTVPSSSLGTQTYICNVNHKPSNTKVDKRVEPKSCDKTHTCPPCPAPEFERGPSVFLFPPKPKDTLMISRTPEVTCVVVDVSHEDPEVKFNWYVDGVEVHNAKTKPREEQYNSTYRVVSVLTVLHQDWLNGKEYKCKVSNKALPAPIEKTISKAKGQPREPQVYTLPPSREEMTKNQVSLTCLVKGFYPSDIAVEWESNGQPENNYKTTPPVLDSDGSFFLYSRLTVDKSRWQQGNVFSCSVMHEALHNHYTQKSLSLSPG
light 2: EIVLTQSPGTLSLSPGERATFSCRSSHSIRSRRVAWYQHKPGQAPRLVIHGVSNRASGISDRFSGSGSGTDFTLTITRVEPEDFALYYCQVYGASSYTFGQGTKLERKRTVAAPSVFIFPPSDEQLKSGTASVVCLLNNFYPREAKVQWKVDNALQSGNSQESVTEQDSKDSTYSLSSTLTLSKADYEKHKVYACEVTHQGLSSPVTKSFNRGEC
With B3, a half-maximal effect in assay [3] (EC50) was put at 0.048 µg/mL.

B4: IgG1-FAPα-FERL (antibody)
heavy: B2 heavy 1
light: B2 light 1
notes: Bivalent monoclonal IgG1 kappa
With B4, in assay [3], the concentration giving a half-maximal response (EC50) worked out at 0.022 µg/mL.

B5: BisG1-b12-FERL/DR4-FERR (bispecific antibody, human IgG1, kappa, lambda)
heavy 1: B3 heavy 2 with F415L, R419K
light 1: B3 light 2
heavy 2: B2 heavy 2
light 2: B2 light 2
notes: Fab-arm exchange of IgG1-b12-FERL and IgG1-DR4-FERR; also called bsIgG1-ctrl-FERLxDR4-FERR
Turning to B5, the EC50 was 0.64 µg/mL in assay [1] and 0.53 µg/mL in assay [2].

The values are drawn from US20250002610A1 (Genmab, published 2025).
